Test system: FasA from Brevibacterium ammoniagenes (multifunctional fatty acid synthase)
Sequence (chain, as listed by the source): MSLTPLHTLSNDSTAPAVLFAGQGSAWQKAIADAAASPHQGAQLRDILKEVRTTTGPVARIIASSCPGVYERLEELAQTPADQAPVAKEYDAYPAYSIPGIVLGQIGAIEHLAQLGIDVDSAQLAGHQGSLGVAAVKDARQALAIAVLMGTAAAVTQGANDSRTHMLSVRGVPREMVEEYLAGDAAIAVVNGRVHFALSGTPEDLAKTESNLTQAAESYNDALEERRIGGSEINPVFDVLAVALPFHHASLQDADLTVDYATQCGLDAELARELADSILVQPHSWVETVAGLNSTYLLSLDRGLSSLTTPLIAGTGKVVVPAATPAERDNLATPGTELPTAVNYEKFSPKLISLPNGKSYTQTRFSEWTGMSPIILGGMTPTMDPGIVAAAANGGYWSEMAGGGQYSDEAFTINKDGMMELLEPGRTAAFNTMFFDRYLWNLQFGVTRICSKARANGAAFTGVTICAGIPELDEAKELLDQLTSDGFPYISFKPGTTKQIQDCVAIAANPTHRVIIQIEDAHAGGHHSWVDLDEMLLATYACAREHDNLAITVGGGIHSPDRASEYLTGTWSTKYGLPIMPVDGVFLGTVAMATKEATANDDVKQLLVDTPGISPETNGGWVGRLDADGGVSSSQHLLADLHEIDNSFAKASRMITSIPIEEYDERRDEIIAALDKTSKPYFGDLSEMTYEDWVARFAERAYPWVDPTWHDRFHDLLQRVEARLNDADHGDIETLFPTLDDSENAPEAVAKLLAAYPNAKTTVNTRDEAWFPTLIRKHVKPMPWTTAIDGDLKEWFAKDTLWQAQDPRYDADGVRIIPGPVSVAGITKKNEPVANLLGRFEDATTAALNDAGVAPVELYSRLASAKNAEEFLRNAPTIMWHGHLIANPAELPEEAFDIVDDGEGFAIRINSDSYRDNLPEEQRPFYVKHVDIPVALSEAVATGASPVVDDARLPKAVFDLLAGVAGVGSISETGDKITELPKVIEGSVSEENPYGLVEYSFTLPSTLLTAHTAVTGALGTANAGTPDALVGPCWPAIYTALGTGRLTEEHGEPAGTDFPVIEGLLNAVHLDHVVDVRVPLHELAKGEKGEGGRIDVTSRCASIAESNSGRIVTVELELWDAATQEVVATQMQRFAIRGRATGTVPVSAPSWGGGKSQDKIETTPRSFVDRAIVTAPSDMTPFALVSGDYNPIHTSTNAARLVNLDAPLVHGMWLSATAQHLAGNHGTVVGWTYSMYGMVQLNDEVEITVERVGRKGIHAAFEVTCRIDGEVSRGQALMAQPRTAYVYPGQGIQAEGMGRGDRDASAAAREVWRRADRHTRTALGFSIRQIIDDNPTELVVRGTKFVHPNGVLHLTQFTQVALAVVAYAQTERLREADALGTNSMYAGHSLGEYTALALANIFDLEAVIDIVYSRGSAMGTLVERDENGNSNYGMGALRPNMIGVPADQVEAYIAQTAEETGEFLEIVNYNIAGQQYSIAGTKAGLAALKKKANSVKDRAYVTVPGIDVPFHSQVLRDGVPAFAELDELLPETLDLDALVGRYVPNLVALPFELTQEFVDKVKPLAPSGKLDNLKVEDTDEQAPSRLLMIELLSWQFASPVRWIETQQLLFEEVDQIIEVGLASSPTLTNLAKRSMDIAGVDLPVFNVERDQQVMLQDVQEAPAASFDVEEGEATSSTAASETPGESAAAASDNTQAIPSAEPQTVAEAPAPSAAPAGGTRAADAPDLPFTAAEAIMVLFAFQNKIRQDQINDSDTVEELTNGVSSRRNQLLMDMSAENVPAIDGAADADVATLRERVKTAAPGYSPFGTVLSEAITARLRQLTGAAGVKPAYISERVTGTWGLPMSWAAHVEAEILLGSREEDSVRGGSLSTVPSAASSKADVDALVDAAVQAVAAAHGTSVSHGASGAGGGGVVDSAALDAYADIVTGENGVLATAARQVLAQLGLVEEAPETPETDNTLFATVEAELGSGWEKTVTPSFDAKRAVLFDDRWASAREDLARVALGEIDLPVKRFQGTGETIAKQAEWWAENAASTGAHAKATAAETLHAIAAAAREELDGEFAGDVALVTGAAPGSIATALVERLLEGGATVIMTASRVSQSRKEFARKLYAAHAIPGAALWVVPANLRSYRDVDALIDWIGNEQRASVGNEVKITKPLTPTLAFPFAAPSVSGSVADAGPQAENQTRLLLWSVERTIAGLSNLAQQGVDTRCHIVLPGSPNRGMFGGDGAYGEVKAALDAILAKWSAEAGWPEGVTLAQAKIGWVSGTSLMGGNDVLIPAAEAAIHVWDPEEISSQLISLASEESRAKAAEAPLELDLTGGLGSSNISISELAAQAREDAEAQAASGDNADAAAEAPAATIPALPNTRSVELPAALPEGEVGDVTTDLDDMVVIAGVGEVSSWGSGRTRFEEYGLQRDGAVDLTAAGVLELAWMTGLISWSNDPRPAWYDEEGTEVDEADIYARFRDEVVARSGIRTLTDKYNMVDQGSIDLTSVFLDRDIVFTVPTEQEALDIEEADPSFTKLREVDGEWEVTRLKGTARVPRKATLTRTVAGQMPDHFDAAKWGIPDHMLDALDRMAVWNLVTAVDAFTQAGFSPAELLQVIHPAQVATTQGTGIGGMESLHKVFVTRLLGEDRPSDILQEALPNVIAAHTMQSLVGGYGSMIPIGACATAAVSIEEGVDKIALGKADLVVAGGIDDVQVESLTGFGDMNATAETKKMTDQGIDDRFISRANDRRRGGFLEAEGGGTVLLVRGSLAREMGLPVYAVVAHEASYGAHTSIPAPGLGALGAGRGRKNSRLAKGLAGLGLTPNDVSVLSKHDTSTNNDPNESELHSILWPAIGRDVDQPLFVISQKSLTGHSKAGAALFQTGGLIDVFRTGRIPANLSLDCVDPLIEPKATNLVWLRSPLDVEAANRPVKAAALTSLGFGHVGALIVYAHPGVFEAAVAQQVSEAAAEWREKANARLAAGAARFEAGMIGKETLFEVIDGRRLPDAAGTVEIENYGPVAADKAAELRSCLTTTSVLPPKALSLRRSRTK

B1: phosphopantetheine:protein transferase (PPT1) enzyme from B. ammoniagenes, expressed in E. coli as a lacZ fusion protein (enzyme, part only; not given: N-terminal lacZ fusion residues)
chain, part: MLDNREAMTVGVDLVHIPGFAEQLSRPGSTFEQVFSPLERRHAQTRRDAAADATNSSLAGSRTEHLAGRWAAKEAFIKAWSQAIYGKPPVIEPDLVNFAEIEVLPDRWGRVALQLKGEVAAKLQESIDVELALSISHDGDYATAQCLLRYQR
  fasA activity (radiochemical assay at 37 C for 15 minutes on partially purified E. coli extracts): only when the fasA cosmid (FA) and the pSU19/ppt1 (P) construct were both present was there any measurable fasA activity

Reference: US20040172681
